Where two headings read alike, the source gives them in different places. One block for each binder: values may come before it.
Legend:
[1] = target: T1, human CD40 on the cell surface (Raji cells, HEK-Blue CD40L cells, primary human B cells and DCs) (human, UniProt P25942 21-277); test: flow cytometry (FACS) binding to Raji cells
T1 construct: whole, on cells; One entry is used for all cell-surface human CD40, endogenous or transfected; also called Raji cell surface human CD40

[2] = target: T1, human CD40 on the cell surface (Raji …); test: flow cytometry (FACS) binding to Raji cells; remark: listed apart in the source
[3] = target: T1, human CD40 on the cell surface (Raji …); test: cell-based or functional assay
[4] = target: T1, human CD40 on the cell surface (Raji …); test: cell-based or functional assay; remark: listed apart in the source
[5] = target: T1, human CD40 on the cell surface (Raji …); test: cell-based or functional assay; remark: listed apart in the source
[6] = target: T2, his-tagged cynomolgus monkey CD40 recombinant protein (cyno-CD40-his, Acrobiosystems Cat. #CD0-C52H6) (cynomolgus monkey); test: SPR (Biacore), antibody captured on anti-human Fc chip, His-tagged CD40 as analyte, 1:1 model
T2 construct: Purchased reagent

[7] = target: T3, his-tagged human CD40 recombinant protein (h-CD40-his, Acrobiosystems Cat. #CD0-H5228) (human, UniProt P25942 21-193); test: as above
T3 construct: Purchased reagent; also called His-tagged human CD40 antigen; not shown: His tag

[8] = target: T2, his-tagged cynomolgus monkey CD40 …; test: as above; remark: listed apart in the source
[9] = target: T3, his-tagged human CD40 recombinant …; test: as above; remark: listed apart in the source
[10] = target: human FcRn antigen (purchased from AcroBiosystem) (human, UniProt P55899 24-297; P61769 21-119); test: SPR (Biacore), antibody captured on anti-human Fab chip, human FcRn as analyte, steady state model
[11] = target: T1, human CD40 on the cell surface (Raji …); test: cell-based or functional assay; remark: listed apart in the source
[12] = target: T1, human CD40 on the cell surface (Raji …); test: cell-based or functional assay; remark: listed apart in the source

T3 sequence (P25942 21-193 limits assumed): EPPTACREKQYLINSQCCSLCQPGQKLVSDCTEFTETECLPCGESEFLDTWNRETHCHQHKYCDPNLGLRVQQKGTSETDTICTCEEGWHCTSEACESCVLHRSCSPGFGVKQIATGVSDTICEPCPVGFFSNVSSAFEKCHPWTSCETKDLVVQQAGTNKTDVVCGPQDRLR
T1 sequence (P25942 21-277): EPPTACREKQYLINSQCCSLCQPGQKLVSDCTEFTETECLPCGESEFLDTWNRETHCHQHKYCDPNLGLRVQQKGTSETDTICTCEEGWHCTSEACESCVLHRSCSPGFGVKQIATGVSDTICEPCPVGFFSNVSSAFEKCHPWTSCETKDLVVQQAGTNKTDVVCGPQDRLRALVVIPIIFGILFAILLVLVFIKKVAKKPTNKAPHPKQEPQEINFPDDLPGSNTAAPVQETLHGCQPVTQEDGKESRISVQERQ

B1: 9E6 human-rabbit chimeric anti-CD40 antibody (antibody, V domains shown)
VH: QSVRESEGGLVKPTDTLTLTCTVSGFSLSSYDMSWVRQAPGNGLEWIGAIGGAGGTYYASWAKSRSTITRNTNLNTVTLKMSSLTAADTATYFCARGWTRLDLWGQGTLVTVSS
VL: DIVLTQTPSPVSGAVGGTVTIKCQASEDISSNLAWYQQKPGQPPKLLIFPASNLASGVSSRFKGSGSGTEFTLTISDLECADAATYYCQGGYWTSTSNFGNGFGGGTEVVVK
notes: Rabbit variable regions joined to a human IgG1 constant region with N297A (Eu numbering) and a human kappa constant region
EC50 [1]: 0.895 nM
EC50 [2]: 0.608 nM
Reporter gene cell activity IC50 (SEAP, HEK-Blue CD40L cells stimulated with CD40L) [3]: 0.221 nM

B2: 9E6-L2H1 humanized anti-CD40 antibody (antibody, human IgG1, V domains shown)
VH: EVQLQESGPGLVKPSDTLSLTCTVSGFSLSSYDMSWIRQPPGKGLEWIGAIGGAGGTYYASWAKSRVTISVDTSLNQVSLKLSSVTAADTAVYYCARGWTRLDLWGQGTLVTVSS
VL: DIQLTQSPSFLSASVGDRVTITCQASEDISSNLAWYQQKPGKPPKLLIFPASNLASGVPSRFSGSGSGTEFTLTISSLQPEDFATYYCQGGYWTSTSNFGSGFGGGTKVEIK
EC50 [1]: 1.99 nM

B4: 9E6-L3H1 humanized anti-CD40 antibody (antibody, human IgG1, V domains shown)
VH: EVQLQESGPGLVKPSDTLSLTCTVSGFSLSSYDMSWIRQPPGKGLEWIGAIGGAGGTYYASWAKSRVTISVDTSLNQVSLKLSSVTAADTAVYYCARGWTRLDLWGQGTLVTVSS
VL: DIQLTQSPSFLSASVGDRVTITCQASEDISSNLAWYQQKPGKPPKLLIFPASNLASGVPSRFSGSGSGTEFTLTISSLQPEDFATYYCQGGYWTSTSNFGTGFGGGTKVEIK
EC50 [1]: 1.06 nM

B5: 9E6-L2H2 humanized anti-CD40 antibody (antibody, human IgG1, V domains shown)
VH: QVQVQESGPGLVKPSDTLSLTCTVSGFSLSSYDMSWIRQPPGKGLEWIGAIGGAGGTYYASWAKSRVTISVDTSLNQVSLKLSSVTAADTAVYYCARGWTRLDLWGQGTLVTVSS
VL: DIQLTQSPSFLSASVGDRVTITCQASEDISSNLAWYQQKPGKPPKLLIFPASNLASGVPSRFSGSGSGTEFTLTISSLQPEDFATYYCQGGYWTSTSNFGSGFGGGTKVEIK
EC50 [1]: 1.66 nM

B8: 9E6-L1H1 humanized anti-CD40 antibody (antibody, human IgG1, V domains shown)
VH: EVQLQESGPGLVKPSDTLSLTCTVSGFSLSSYDMSWIRQPPGKGLEWIGAIGGAGGTYYASWAKSRVTISVDTSLNQVSLKLSSVTAADTAVYYCARGWTRLDLWGQGTLVTVSS
VL: DIQLTQSPSFLSASVGDRVTITCQASEDISSNLAWYQQKPGKPPKLLIFPASNLASGVPSRFSGSGSGTEFTLTISSLQPEDFATYYCQGGYWTSTSNFGNVFGGGTKVEIK
EC50 [1]: 1.08 nM

B9: 9E6-L4H2 humanized anti-CD40 antibody (antibody, human IgG1, kappa, N297A)
heavy: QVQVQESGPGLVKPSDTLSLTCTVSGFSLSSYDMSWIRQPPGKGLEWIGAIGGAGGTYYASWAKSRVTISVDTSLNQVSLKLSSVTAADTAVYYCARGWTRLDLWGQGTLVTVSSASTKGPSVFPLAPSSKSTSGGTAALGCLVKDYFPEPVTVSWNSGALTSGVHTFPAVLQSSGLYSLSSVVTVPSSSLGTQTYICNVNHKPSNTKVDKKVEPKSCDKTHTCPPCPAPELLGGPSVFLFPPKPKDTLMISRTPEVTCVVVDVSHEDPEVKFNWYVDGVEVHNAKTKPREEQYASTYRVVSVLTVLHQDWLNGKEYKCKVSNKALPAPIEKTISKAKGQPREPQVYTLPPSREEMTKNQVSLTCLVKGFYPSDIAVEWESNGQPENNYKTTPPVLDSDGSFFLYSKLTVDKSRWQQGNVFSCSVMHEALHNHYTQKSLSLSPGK
light: DIQLTQSPSFLSASVGDRVTITCQASEDISSNLAWYQQKPGKPPKLLIFPASNLASGVPSRFSGSGSGTEFTLTISSLQPEDFATYYCQGGYWTSTSNFGQGFGGGTKVEIKRTVAAPSVFIFPPSDEQLKSGTASVVCLLNNFYPREAKVQWKVDNALQSGNSQESVTEQDSKDSTYSLSSTLTLSKADYEKHKVYACEVTHQGLSSPVTKSFNRGEC
notes: human IgG1 N297A (Eu) heavy chain and kappa light chain
IC50 in DC cell activation assay system, CD80 MFI [4]: 3.44 nM
IC50 in DC cell activation assay system, CD86 MFI [4]: 3.72 nM
IC50 in DC cell activation assay system, IL-12/23 p40 [4]: 1.85 nM
IC50 in DC cell activation assay system, TNFα [4]: 0.7 nM
EC50 [1]: 0.87 nM
B cell activation assay, CD19+CD69+ %, IC50 [5]: 0.14 nM
B cell activation assay, CD19+CD69+ MFI, IC50 [5]: 0.07 nM
Kd [6]: 0.121 nM
koff [6]: 6.23e-05 s⁻¹
kon [6]: 514000 M⁻¹ s⁻¹
Kd [7]: 0.536 nM
koff [7]: 0.000221 s⁻¹
kon [7]: 413000 M⁻¹ s⁻¹
Kd [8]: 0.294 nM
koff [8]: 0.000138 s⁻¹
kon [8]: 468000 M⁻¹ s⁻¹
Kd [9]: 0.926 nM
koff [9]: 0.000377 s⁻¹
kon [9]: 407000 M⁻¹ s⁻¹
Kd [10]: 293 nM
B cell activation assay, CD19+CD69+%, Donor 1, IC50 [11]: 0.44 nM
B cell activation assay, CD19+CD69+%, Donor 2, IC50 [11]: 0.52 nM
IC50 for the inhibition of CD40 reporter gene cell activity (Experiment 2) [12]: 0.5 nM

B10: 9E6-L4H2-AAYTE anti-CD40 antibody (IgG1 with L234A, L235A, M252Y, S254T, T256E) (antibody)
heavy: QVQVQESGPGLVKPSDTLSLTCTVSGFSLSSYDMSWIRQPPGKGLEWIGAIGGAGGTYYASWAKSRVTISVDTSLNQVSLKLSSVTAADTAVYYCARGWTRLDLWGQGTLVTVSSASTKGPSVFPLAPSSKSTSGGTAALGCLVKDYFPEPVTVSWNSGALTSGVHTFPAVLQSSGLYSLSSVVTVPSSSLGTQTYICNVNHKPSNTKVDKKVEPKSCDKTHTCPPCPAPEAAGGPSVFLFPPKPKDTLYITREPEVTCVVVDVSHEDPEVKFNWYVDGVEVHNAKTKPREEQYNSTYRVVSVLTVLHQDWLNGKEYKCKVSNKALPAPIEKTISKAKGQPREPQVYTLPPSREEMTKNQVSLTCLVKGFYPSDIAVEWESNGQPENNYKTTPPVLDSDGSFFLYSKLTVDKSRWQQGNVFSCSVMHEALHNHYTQKSLSLSPGK
light: DIQLTQSPSFLSASVGDRVTITCQASEDISSNLAWYQQKPGKPPKLLIFPASNLASGVPSRFSGSGSGTEFTLTISSLQPEDFATYYCQGGYWTSTSNFGQGFGGGTKVEIKRTVAAPSVFIFPPSDEQLKSGTASVVCLLNNFYPREAKVQWKVDNALQSGNSQESVTEQDSKDSTYSLSSTLTLSKADYEKHKVYACEVTHQGLSSPVTKSFNRGEC
Kd [10]: 39.8 nM

Further lines, results first:

EC50 [1]: 1.05 nM
B3: 9E6-L1H2 humanized anti-CD40 antibody (antibody, human IgG1, V domains shown)
VH: QVQVQESGPGLVKPSDTLSLTCTVSGFSLSSYDMSWIRQPPGKGLEWIGAIGGAGGTYYASWAKSRVTISVDTSLNQVSLKLSSVTAADTAVYYCARGWTRLDLWGQGTLVTVSS
VL: DIQLTQSPSFLSASVGDRVTITCQASEDISSNLAWYQQKPGKPPKLLIFPASNLASGVPSRFSGSGSGTEFTLTISSLQPEDFATYYCQGGYWTSTSNFGNVFGGGTKVEIK

EC50 [1]: 1.15 nM
B6: 9E6-L3H2 humanized anti-CD40 antibody (antibody, human IgG1, V domains shown)
VH: QVQVQESGPGLVKPSDTLSLTCTVSGFSLSSYDMSWIRQPPGKGLEWIGAIGGAGGTYYASWAKSRVTISVDTSLNQVSLKLSSVTAADTAVYYCARGWTRLDLWGQGTLVTVSS
VL: DIQLTQSPSFLSASVGDRVTITCQASEDISSNLAWYQQKPGKPPKLLIFPASNLASGVPSRFSGSGSGTEFTLTISSLQPEDFATYYCQGGYWTSTSNFGTGFGGGTKVEIK

EC50 [1]: 0.928 nM
B7: 9E6-L4H1 humanized anti-CD40 antibody (antibody, human IgG1, V domains shown)
VH: EVQLQESGPGLVKPSDTLSLTCTVSGFSLSSYDMSWIRQPPGKGLEWIGAIGGAGGTYYASWAKSRVTISVDTSLNQVSLKLSSVTAADTAVYYCARGWTRLDLWGQGTLVTVSS
VL: DIQLTQSPSFLSASVGDRVTITCQASEDISSNLAWYQQKPGKPPKLLIFPASNLASGVPSRFSGSGSGTEFTLTISSLQPEDFATYYCQGGYWTSTSNFGQGFGGGTKVEIK

Reference: patent US20260207759A1 (SUZHOU SUNCADIA BIOPHARMACEUTICALS, published 2026)
